According to the supplement of paper PMC9112550, “Optimization of the antimicrobial peptide Bac7 by deep mutational scanning” (BMC Biology, 2022):

system: Escherichia coli TOP10; test: shrunken log2 fold change of peptide-encoding DNA abundance (4.5 h post-induction vs induction); higher = less antimicrobial activity (less host growth inhibition); details: time post-induction: 4.5 h; library: site-saturation at positions 5, 18, 19, 20
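Also: peptides expressed intracellularly from a pBAD plasmid library in pooled LB shake-flask culture, induced with 0.3% L-arabinose, DNA abundance read by NGS, three biological replicates, DESeq2 with apeglm shrinkage.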

Sequence | shrunken log2 fold change
RRIRQRPPRLPRPRPRPALNPRP | -0.0345
RRIRQRPPRLPRPRPRPAMLPRP | 0.0266
RRIRQRPPRLPRPRPRPAMYPRP | -0.244
RRIRQRPPRLPRPRPRPANEPRP | -0.104
RRIRQRPPRLPRPRPRPAPDPRP | 0.261
RRIRQRPPRLPRPRPRPAPEPRP | 0.228
RRIRQRPPRLPRPRPRPARRPRP | 0.486
RRIRQRPPRLPRPRPRPATCPRP | -0.0483
RRIRQRPPRLPRPRPRPAYDPRP | -0.0146
RRIRQRPPRLPRPRPRPAYQPRP | -0.00193
RRIRQRPPRLPRPRPRPCAFPRP | -0.254
RRIRQRPPRLPRPRPRPCANPRP | 0.00875
RRIRQRPPRLPRPRPRPCAPPRP | 0.226
RRIRQRPPRLPRPRPRPCDQPRP | 0.0849
RRIRQRPPRLPRPRPRPCDWPRP | 0.202
RRIRQRPPRLPRPRPRPCELPRP | 0.0039
RRIRQRPPRLPRPRPRPCFFPRP | -0.101
RRIRQRPPRLPRPRPRPCGKPRP | -0.116
RRIRQRPPRLPRPRPRPCIKPRP | 0.155
RRIRQRPPRLPRPRPRPCLQPRP | -0.112
RRIRQRPPRLPRPRPRPCMAPRP | -0.117
RRIRQRPPRLPRPRPRPCMIPRP | -0.0196
RRIRQRPPRLPRPRPRPCPHPRP | -0.141
RRIRQRPPRLPRPRPRPCPIPRP | 0.0347
RRIRQRPPRLPRPRPRPCQTPRP | 0.00707

Sequence | shrunken log2 fold change
RRIRQRPPRLPRPRPRPCSEPRP | -0.201
RRIRQRPPRLPRPRPRPCWSPRP | -0.08
RRIRQRPPRLPRPRPRPCWYPRP | -0.261
RRIRQRPPRLPRPRPRPDAGPRP | -0.0738
RRIRQRPPRLPRPRPRPDASPRP | 0.0949
RRIRQRPPRLPRPRPRPDDIPRP | -0.0246
RRIRQRPPRLPRPRPRPDDNPRP | 0.0317
RRIRQRPPRLPRPRPRPDDVPRP | 0.064
RRIRQRPPRLPRPRPRPDELPRP | -0.0583
RRIRQRPPRLPRPRPRPDICPRP | -0.0144
RRIRQRPPRLPRPRPRPDIHPRP | -0.0439
RRIRQRPPRLPRPRPRPDIYPRP | -0.284
RRIRQRPPRLPRPRPRPDKHPRP | -0.205
RRIRQRPPRLPRPRPRPDNNPRP | -1.14
RRIRQRPPRLPRPRPRPDNWPRP | -0.117
RRIRQRPPRLPRPRPRPDPGPRP | -0.00151
RRIRQRPPRLPRPRPRPDPYPRP | 0.032
RRIRQRPPRLPRPRPRPDRRPRP | 0.00167
RRIRQRPPRLPRPRPRPDSDPRP | -0.159
RRIRQRPPRLPRPRPRPDTVPRP | -0.171
RRIRQRPPRLPRPRPRPDVGPRP | -0.0428
RRIRQRPPRLPRPRPRPDVNPRP | -0.142
RRIRQRPPRLPRPRPRPDYGPRP | -0.159
RRIRQRPPRLPRPRPRPDYPPRP | 0.00454
RRIRQRPPRLPRPRPRPEAKPRP | 0.0428

Sequence | shrunken log2 fold change
RRIRQRPPRLPRPRPRPECIPRP | -0.269
RRIRQRPPRLPRPRPRPECRPRP | 0.414
RRIRQRPPRLPRPRPRPEDRPRP | -0.0214
RRIRQRPPRLPRPRPRPEFCPRP | 0.0723
RRIRQRPPRLPRPRPRPEFMPRP | -0.0743
RRIRQRPPRLPRPRPRPEFVPRP | 0.031
RRIRQRPPRLPRPRPRPEHRPRP | -0.271
RRIRQRPPRLPRPRPRPEIYPRP | -0.145
RRIRQRPPRLPRPRPRPEMEPRP | 0.0171
RRIRQRPPRLPRPRPRPEMLPRP | 0.0554
RRIRQRPPRLPRPRPRPENKPRP | -0.578
RRIRQRPPRLPRPRPRPEQMPRP | -0.00448
RRIRQRPPRLPRPRPRPERAPRP | 0.53
RRIRQRPPRLPRPRPRPETWPRP | 0.00978
RRIRQRPPRLPRPRPRPEVEPRP | 0.0391
RRIRQRPPRLPRPRPRPEYLPRP | -0.00804
RRIRQRPPRLPRPRPRPFAKPRP | -0.0663
RRIRQRPPRLPRPRPRPFAPPRP | 0.0897
RRIRQRPPRLPRPRPRPFASPRP | -0.35
RRIRQRPPRLPRPRPRPFCIPRP | -0.641
RRIRQRPPRLPRPRPRPFCYPRP | -0.264
RRIRQRPPRLPRPRPRPFEEPRP | -0.138
RRIRQRPPRLPRPRPRPFFGPRP | 6.44e-05
RRIRQRPPRLPRPRPRPFFNPRP | -0.438
RRIRQRPPRLPRPRPRPFHFPRP | -0.0115

Sequence | shrunken log2 fold change
RRIRQRPPRLPRPRPRPFHIPRP | -1.55
RRIRQRPPRLPRPRPRPFKHPRP | -0.244
RRIRQRPPRLPRPRPRPFKWPRP | -0.185
RRIRQRPPRLPRPRPRPFLNPRP | -0.118
RRIRQRPPRLPRPRPRPFMRPRP | -0.0303
RRIRQRPPRLPRPRPRPFMWPRP | -0.245
RRIRQRPPRLPRPRPRPFNDPRP | 0.0753
RRIRQRPPRLPRPRPRPFNHPRP | 0.0419
RRIRQRPPRLPRPRPRPFRCPRP | -0.0452
RRIRQRPPRLPRPRPRPFSKPRP | -0.218
RRIRQRPPRLPRPRPRPFVLPRP | -0.277
RRIRQRPPRLPRPRPRPFVTPRP | -1.13
RRIRQRPPRLPRPRPRPFWMPRP | 0.00494
RRIRQRPPRLPRPRPRPFYHPRP | -0.368
RRIRQRPPRLPRPRPRPGAQPRP | 0.528
RRIRQRPPRLPRPRPRPGCSPRP | 0.0894
RRIRQRPPRLPRPRPRPGFRPRP | 0.0901
RRIRQRPPRLPRPRPRPGGAPRP | 0.485
RRIRQRPPRLPRPRPRPGGEPRP | 0.218
RRIRQRPPRLPRPRPRPGHIPRP | -0.0594
RRIRQRPPRLPRPRPRPGIFPRP | 0.0804
RRIRQRPPRLPRPRPRPGILPRP | -0.181
RRIRQRPPRLPRPRPRPGIPPRP | -0.0269
RRIRQRPPRLPRPRPRPGKVPRP | -0.0155
RRIRQRPPRLPRPRPRPGMLPRP | 0.105

Sequence | shrunken log2 fold change
RRIRQRPPRLPRPRPRPGNYPRP | -0.222
RRIRQRPPRLPRPRPRPGQSPRP | -0.0203
RRIRQRPPRLPRPRPRPGQVPRP | 0.111
RRIRQRPPRLPRPRPRPGREPRP | 0.221
RRIRQRPPRLPRPRPRPGSGPRP | 0.135
RRIRQRPPRLPRPRPRPGSKPRP | -0.00453
RRIRQRPPRLPRPRPRPGSQPRP | -0.161
RRIRQRPPRLPRPRPRPGTIPRP | -0.259
RRIRQRPPRLPRPRPRPGTNPRP | -0.0906
RRIRQRPPRLPRPRPRPGYLPRP | 0.0613
RRIRQRPPRLPRPRPRPHCFPRP | -0.111
RRIRQRPPRLPRPRPRPHDDPRP | 0.043
RRIRQRPPRLPRPRPRPHDHPRP | -0.0539
RRIRQRPPRLPRPRPRPHDNPRP | 1.99
RRIRQRPPRLPRPRPRPHDYPRP | -0.00281
RRIRQRPPRLPRPRPRPHHVPRP | -0.0277
RRIRQRPPRLPRPRPRPHIQPRP | -0.444
RRIRQRPPRLPRPRPRPHKYPRP | -1.21
RRIRQRPPRLPRPRPRPHLIPRP | -0.0982
RRIRQRPPRLPRPRPRPHMAPRP | -0.0694
RRIRQRPPRLPRPRPRPHMRPRP | 0.36
RRIRQRPPRLPRPRPRPHMTPRP | -0.391
RRIRQRPPRLPRPRPRPHNIPRP | -0.076
RRIRQRPPRLPRPRPRPHNLPRP | -0.183
RRIRQRPPRLPRPRPRPHPFPRP | -0.29

Sequence | shrunken log2 fold change
RRIRQRPPRLPRPRPRPHPMPRP | -0.185
RRIRQRPPRLPRPRPRPHQNPRP | -0.246
RRIRQRPPRLPRPRPRPHRNPRP | 0.116
RRIRQRPPRLPRPRPRPHRVPRP | -0.00151
RRIRQRPPRLPRPRPRPHSGPRP | -0.01
RRIRQRPPRLPRPRPRPHSIPRP | 0.0425
RRIRQRPPRLPRPRPRPHVQPRP | -0.46
RRIRQRPPRLPRPRPRPIAHPRP | -0.148
RRIRQRPPRLPRPRPRPIANPRP | -0.0128
RRIRQRPPRLPRPRPRPICMPRP | -0.0553
RRIRQRPPRLPRPRPRPICVPRP | -0.307
RRIRQRPPRLPRPRPRPIEDPRP | -0.126
RRIRQRPPRLPRPRPRPIFFPRP | -0.0319
RRIRQRPPRLPRPRPRPIFHPRP | -0.176
RRIRQRPPRLPRPRPRPIGAPRP | -0.0217
RRIRQRPPRLPRPRPRPIHEPRP | -0.0182
RRIRQRPPRLPRPRPRPIHQPRP | -0.15
RRIRQRPPRLPRPRPRPIIFPRP | -0.271
RRIRQRPPRLPRPRPRPIKFPRP | -0.282
RRIRQRPPRLPRPRPRPIKTPRP | -0.0201
RRIRQRPPRLPRPRPRPIMAPRP | -0.0123
RRIRQRPPRLPRPRPRPIMFPRP | -0.144
RRIRQRPPRLPRPRPRPIMIPRP | -0.452
RRIRQRPPRLPRPRPRPINHPRP | 0.147
RRIRQRPPRLPRPRPRPINMPRP | -0.28
